Test results: US20090162363A1 (published 2009)

How the values were obtained:
[1] = biological target: T1, recombinant human PEDF protein (pigment epithelium derived factor) (human, UniProt P36955 20-418); experiment: SPR (BIAcore), PEDF immobilized on CM5 chip; PBS with 0.1% NP-40
T1 chain: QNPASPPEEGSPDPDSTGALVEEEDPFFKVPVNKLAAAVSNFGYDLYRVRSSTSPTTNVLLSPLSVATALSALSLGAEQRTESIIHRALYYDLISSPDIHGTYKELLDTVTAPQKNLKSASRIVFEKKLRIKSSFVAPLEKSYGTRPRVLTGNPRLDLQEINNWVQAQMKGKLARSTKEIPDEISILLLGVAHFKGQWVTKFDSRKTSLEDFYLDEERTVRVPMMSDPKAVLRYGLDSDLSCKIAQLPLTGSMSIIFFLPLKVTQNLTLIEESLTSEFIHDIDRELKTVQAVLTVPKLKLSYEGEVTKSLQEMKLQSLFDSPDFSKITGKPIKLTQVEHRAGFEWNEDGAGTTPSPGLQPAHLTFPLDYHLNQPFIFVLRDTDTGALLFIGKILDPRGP

[2] = biological target: T1, recombinant human PEDF protein (pigment …); experiment: as above

Ka [1]: 4.32e+08 M⁻¹
Kd [2]: 2.31 nM
B1: R1N (recombinant human PEDF-R1 polypeptide with N-terminal 6xHis tag, from pEXP1-R1N) (receptor)
chain: MFPREKTWNISFAGCGFLGVYYVGVASCLREHAPFLVANATHIYGASAGALTATALVTGVCLGEAGAKFIEVSKEARKRFLGPLHPSFNLVKIIRSFLLKVLPADSHEHASGRLGISLTRVSDGENVIISHFNSKDELIQANVCSGFIPVYCGLIPPSLQGVRYVDGGISDNLPLYELKNTITVSPFSGESDICPQDSSTNIHELRVTNTSIQFNLRNLYRLSKALFPPEPLVLREMCKQGYRDGLRFLQRNGLLNRPNPLLALPPARPHGPEDKDQAVESAQAEDYSQLPGEDHILEHLPARLNEALLEACVEPTDLLTTLSNMLPVRLATAMMVPYTLPLESALSFTIRLLEWLPDVPEDIRWMKEQTGSICQYLVMRAKRKLGRHLPSRLPEQVELRRVQSLPSVPLSCAAYREALPGWMRNNLSLGDALAKWEECQRQLLLGLFCTNVAFPPEALRMRAPADPAPAPADPASPQHQLAGPAPLLSTPAPEARPVIGALGL
